Measurements published in patent publication US20100298225A1, “PEPTIDE GAP JUNCTION MODULATORS” (priority 2007, published 2010).
“Also recorded” adds a separate entry of the source.

Columns and labels:
[1] = target: T1, carboxyl terminal domain (CT) of Cx43 (Rattus norvegicus, UniProt P08050); test: Peptide binding to Cx43CT determined using surface plasmon resonance (SPR); settings: immobilised recombinant Cx43CT
T1 construct: GST (N, cleaved yes); made in house; host or cells: E. coli BL-21
Procedure: 277(39):36706-36714 (2002), which is hereby incorporated by reference in its entirety. Briefly, cDNA derived from rat Cx43 was inserted into pGEX-6P-2 (Amersham) and expressed in E. coli (BL-21). The resultant GST-fusion protein was cleaved from the GST PreScission Protease® (Amersham Biosciences). The recombinant product after cleavage contained the sequence 255-382 of rCx43 preceded by four additional amino acids (GPLG). Protein concentration was measured using the Bio-Rad DC Protein Assay. Protein purity was assessed by SDS-PAGE.
Recombinant Cx43CT was covalently bound to a carboxylmethyl dextran matrix (Salamon et al., “Surface Plasmon Resonance Spectroscopy as a Tool for Investigating the Biochemical and Biophysical Properties of Membrane Protein Systems. II: Applications to Biological Systems,” Biochim. Biophys. Acta 1331(2):131-152 (1997), which is hereby incorporated by reference in its entirety). Specific peptides were presented and, when feasible, dissociation constants (KD) were calculated from the time course of binding and unbinding of the ligand, using a 1:1 (Langmuir) association and dissociation kinetic model (Biacore software package). In both phases (association and dissociation), the first 5-8 seconds of recording were not included in the fit, to avoid artifacts resulting from peptide distribution within the flow cells (Lang et al., “Surface Plasmon Resonance as a Method to Study the Kinetics and Amplitude of Protein-protein Binding,” in PRACTICAL METHODS IN CARDIOVASCULAR RESEARCH 936-947 (Stefan Dhein, Friedrich Wilhelm Mohr & Mario Delmar eds., 2005), which is hereby incorporated by reference in its entirety).
The peptides shown in table 2 and 3 were tested for binding to the carboxyl terminal domain (CT) of Cx43 using Surface Plasmon Resonance (“SPR”). SPR is a method that was used to identify the original RXPE sequence (Shibayama et al., “Identification of a Novel Peptide that Interferes with the Chemical Regulation of Connexin-43,” Circ. Res. 98:1365-72 (2006)). The amplitude of the response is also a function of the mass of the ligate, and the normalized data according to the individual peptide Mw's are shown in table 3.

[2] = target: T2, Cx43-expressing N2a cells (Rattus norvegicus, UniProt P08050); test: Dual patch clamp: octanol-induced uncoupling, junctional conductance between cell pairs; format: cell-based; settings: for Effect on octanol-induced uncoupling: Vj 60 mV
T2 construct: expressed in transfected cells; host or cells: N2a (neuroblastoma) cells
Procedure: Experiments were conducted on N2a (Neuroblastoma) cells. Cx43 was expressed either in a lac-switch stable system (induced by 0.1-1.0 mM of IPTG (Zhong et al., “LacSwitch II Regulation of Connexin43 cDNA Expression Enables Gap-junction Single-channel Analysis,” Biotechniques 34(5):1034-1034, 1041-1044, 1046 (2003), which is hereby incorporated by reference in its entirety)) or transiently using an IRES plasmid coding for eGFP (Seki et al., “Modifications in the Biophysical Properties of Connexin43 Channels by a Peptide of the Cytoplasmic Loop Region,” Circ. Res. 95(4):e22-e28 (2004); Seki et al., “Loss of Electrical Communication, but Not Plaque Formation, After Mutations in the Cytoplasmic Loop of Connexin43,” Heart Rhythm. 1(2):227-233 (2004), which are hereby incorporated by reference in their entirety). M257 (a mutant of Cx43 truncated at amino acid 257 (Morley et al., “Intramolecular Interactions Mediate pH Regulation of Connexin43 Channels,” Biophys. J. 70(3):1294-1302 (1996), which is hereby incorporated by reference in its entirety)) was transiently expressed in N2a cells also using an eGFP-containing IRES plasmid. Cells were placed on the stage of an inverted microscope equipped for epifluorescence (Nikon Diaphoto200, Filter: 520 to 560 nm). Junctional current (I) was recorded from eGFP-positive cell pairs in a dual-whole-cell voltage clamp configuration (holding potentials: −40 mV; transjuctional voltage, Vj, +[…]; step duration, 10-30 seconds). Patch pipettes were filled with a cesium-containing solution (Seki et al., “Modifications in the Biophysical Properties of Connexin43 Channels by a Peptide of the Cytoplasmic Loop Region,” Circ. Res. 95(4):e22-e28 (2004); Seki et al., “Loss of Electrical Communication, but Not Plaque Formation, After Mutations in the Cytoplasmic Loop of Connexin43,” Heart Rhythm. 1(2):227-233 (2004), which are hereby incorporated by reference in their entirety). For the low pH experiments, HEPES was replaced by MES (10 mM). Pipette resistance was 4.0-6.0MΩ. Synthetic peptides were diluted in the pipette solution to a final concentration of 0.1 mM. During recording, cells were kept at room temperature in a cesium-containing solution (Seki et al., “Modifications in the Biophysical Properties of Connexin43 Channels by a Peptide of the Cytoplasmic Loop Region,” Circ. Res. 95(4):e22-e28 (2004); Seki et al., “Loss of Electrical Communication, but Not Plaque Formation, After Mutations in the Cytoplasmic Loop of Connexin43,” Heart Rhythm. 1(2):227-233 (2004), which are hereby incorporated by reference in their entirety). For some experiments, octanol (2.0 mM) was superfused during recording. Data acquisition and recording, and criteria for single channel detection were as reported in Seki et al., “Modifications in the Biophysical Properties of Connexin43 Channels by a Peptide of the Cytoplasmic Loop Region,” Circ. Res. 95(4):e22-e28 (2004) and Seki et al., “Loss of Electrical Communication, but Not Plaque Formation, After Mutations in the Cytoplasmic Loop of Connexin43,” Heart Rhythm. 1(2):227-233 (2004), which are hereby incorporated by reference in their entirety.
Compounds were tested for their ability to interfere with octanol-induced uncoupling. Compounds are tested for their ability to interfere with acidification induces uncoupling.
Experiments were modeled after those described in Shibayama et al (2006). Junctional conductance between Cx43-expressing N2a cell pairs was assessed using conventional dual patch clamp. Peptides were diluted in the patch pipette solution and the cells will be exposed either to octanol or to a low intracellular pH. Control experiments were carried out in the absence of the compound. The results are shown in FIGS. 3A-E, which are graphs of the time course of octanol-induced changes in coupling recorded from Cx43-expressing N2a cells. FIGS. 3A-E relate to peptides 2517, 2518, 2529, 2520 and 2624 respectively. […]

[3] = 0.1 mM peptide in internal pipette solution, octanol superfusion

T1 sequence (P08050 255-382): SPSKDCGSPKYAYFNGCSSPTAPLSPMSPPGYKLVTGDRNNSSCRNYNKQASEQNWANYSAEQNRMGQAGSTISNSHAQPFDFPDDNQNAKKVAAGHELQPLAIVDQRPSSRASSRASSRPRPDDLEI
T2 sequence (P08050 whole entry): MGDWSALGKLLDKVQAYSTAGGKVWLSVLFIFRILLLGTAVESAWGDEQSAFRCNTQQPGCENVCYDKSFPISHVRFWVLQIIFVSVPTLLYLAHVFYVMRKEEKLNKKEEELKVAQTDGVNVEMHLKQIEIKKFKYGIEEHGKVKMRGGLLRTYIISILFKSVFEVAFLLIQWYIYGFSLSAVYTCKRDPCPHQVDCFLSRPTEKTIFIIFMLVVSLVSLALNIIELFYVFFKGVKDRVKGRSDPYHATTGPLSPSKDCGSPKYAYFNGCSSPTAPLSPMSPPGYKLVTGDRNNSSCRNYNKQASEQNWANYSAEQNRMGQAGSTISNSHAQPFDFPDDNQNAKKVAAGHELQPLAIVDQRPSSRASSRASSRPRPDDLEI

Substance	SPR respons ([1]; peptide 25 uM)	SPR respons ([1]; peptide 100 uM)	SPR respons ([1]; peptide 250 uM)	SPR respons ([1]; peptide 500 uM)	SPR respons ([1]; peptide 1 mM)	Effect on octanol-induced uncoupling [2, 3]	Ability to re-open gap junctions closed by the uncoupler (revert uncoupled cells to coupled) [2, 3]	Average junctional conductance (Gj) as a function of time after onset of octanol ([2]; 0.1 mM peptide in pipette, Gj relative to value before octanol, N=7 pairs)	Cell pairs that remained coupled / uncoupled following onset of octanol superfusion ([2]; seven cell pairs, peptide in pipette, uncoupling = zero junctional current at 60-mV pulse)
Ac-Arg-Arg-Asn-Tyr-Arg-Arg-Asn-Tyr-NH2 (Ac-RRNYRRNY-NH2) [Compound 2497]	30.2 arbitrary units	84.2 arbitrary units	201.5 arbitrary units	327.5 arbitrary units	565.2 arbitrary units	prevented octanol-induced uncoupling; also recorded: preventing the uncoupling of GJ	–	–	–
Ac-Arg-Arg-Asn-Tyr-Gly-Gly-Gly-Ser-Ala-Val-Pro-Phe-Tyr-Ser-His-Ser-Arg-Arg-Asn-Tyr-NH2 (Ac-RRNYGGGSAVPFYSHSRRNY-NH2) [Compound 2366]	–	–	–	–	–	prevented octanol-induced uncoupling	able to revert uncoupled cells to couple cells; also recorded: re-open gap junctions that were initially closed by the uncoupler	decreased at first and then increased	uncoupled and then recoupled
